Data taken from patent US6010856, “Assay systems and methods for measuring P38 map kinase, and modulators thereof” (The Scripps Research Institute).

Assays:
[1] = target: MEF2C phosphorylated by p38 (UniProt Q06413-3 Q06413-3:1-441); test: EMSA; p38 phosphorylation did not reduce binding but decreased complex mobility; details: tags: in vitro translated then treated with recombinant p38; label: 32P
Source text: (§1) Members of the MEF2 family bind to conserved A/T-rich DNA sequences—CTA[A/T]_4TAG/A—found in the regulatory regions of many muscle-specific genes (Y. -T. Yu et al., Genes and Develop. 6, 1783 (1992). Binding of MEF2C to the consensus site can be detected by electrophoretic mobility-shift analysis (EMSA) (J. F. Martin et al., Proc. Natl. Acad. Sci. USA, 90, 5282 (1993); J. C. McDermott et al., Mol. Cell. Biol. 13, 2564 (1994); D. Leifer et al., Proc. Natl. Acad. Sci. USA 90, 11546 (1993)). To test whether the phosphorylation of MEF2C alters MEF2C binding to its consensus DNA binding site the mobility of the MEF2C-DNA probe complex formed by MEF2C before and after its treatment with wtp38 was compared (FIG. 3).
(§2) Binding of MEF2C to oligonucleotides containing the MEF2 consensus site determined by electrophoretic mobility-shift assay (EMSA). The oligonucleotide probe was double-stranded ^32P-labeled oligonucleotide containing the MEF2 consensus binding site (Oligonucleotides sequence, MEF2C: GATCGCT CTAAAAATAACCCTGTCG (SEQ ID NO: 1); MEF2Cmut: […] (SEQ ID NO: 2)) and the positions of free probe (F) and of bound probe (B_1 and B_2) are indicated by arrows. […]

MEF2C = MEF2C (UniProt Q06413-3 Q06413-3:1-441); test: EMSA; complexes B1 and B2; details: tags: in vitro translated from MEF2C cDNA; label: 32P
Chain of MEF2C (Q06413 other isoform, or with tags, fused parts or gaps): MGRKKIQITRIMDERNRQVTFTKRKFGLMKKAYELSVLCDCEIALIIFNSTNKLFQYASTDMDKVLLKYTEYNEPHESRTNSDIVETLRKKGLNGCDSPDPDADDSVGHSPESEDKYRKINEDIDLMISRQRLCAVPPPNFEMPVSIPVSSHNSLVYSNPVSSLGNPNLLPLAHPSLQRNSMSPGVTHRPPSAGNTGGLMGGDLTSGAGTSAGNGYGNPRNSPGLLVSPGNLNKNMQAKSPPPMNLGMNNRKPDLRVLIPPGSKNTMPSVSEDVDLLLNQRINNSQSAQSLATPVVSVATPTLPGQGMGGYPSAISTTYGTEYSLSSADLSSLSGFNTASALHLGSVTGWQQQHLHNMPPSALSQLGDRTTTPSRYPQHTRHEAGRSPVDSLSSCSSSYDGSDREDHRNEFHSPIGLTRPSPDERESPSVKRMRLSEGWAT
Source text: as §1, §2

Chain of MEF2C phosphorylated by p38 (Q06413 other isoform, or with tags, fused parts or gaps): as above

B1: MEF2C consensus site probe (dsDNA)
DNA 1: GATCGCTCTAAAAATAACCCTGTCG
DNA 2: CGACAGGGTTATTTTTAGAGCGATC
B1: binds [1]; binds (MEF2C).
